According to publication doi:10.1101/2022.10.06.511240 (bioRxiv, 2022):

Target: T1, NRT1.1-His (Arabidopsis thaliana, UniProt Q05085 1-590)
T1 sequence (looked up): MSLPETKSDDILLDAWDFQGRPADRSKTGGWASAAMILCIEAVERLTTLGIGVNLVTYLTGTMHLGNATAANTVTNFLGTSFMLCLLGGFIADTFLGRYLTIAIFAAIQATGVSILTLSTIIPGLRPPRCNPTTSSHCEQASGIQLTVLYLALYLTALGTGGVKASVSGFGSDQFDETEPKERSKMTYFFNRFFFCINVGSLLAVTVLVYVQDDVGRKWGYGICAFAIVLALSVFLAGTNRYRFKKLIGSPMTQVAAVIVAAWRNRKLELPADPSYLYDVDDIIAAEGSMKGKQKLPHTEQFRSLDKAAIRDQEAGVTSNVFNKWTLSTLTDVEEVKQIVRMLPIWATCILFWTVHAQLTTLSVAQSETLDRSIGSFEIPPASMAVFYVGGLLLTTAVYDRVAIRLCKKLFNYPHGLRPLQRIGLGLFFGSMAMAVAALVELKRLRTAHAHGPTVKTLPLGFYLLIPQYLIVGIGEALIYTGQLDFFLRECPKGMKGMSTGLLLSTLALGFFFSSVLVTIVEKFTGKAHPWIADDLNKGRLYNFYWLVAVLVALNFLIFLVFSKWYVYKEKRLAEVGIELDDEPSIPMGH
Assay: pull-down

binding result: binds
B1: CPK6-GST (enzyme, Arabidopsis thaliana, UniProt Q38872 1-544, looked up)
chain: MGNSCRGSFKDKIYEGNHSRPEENSKSTTTTVSSVHSPTTDQDFSKQNTNPALVIPVKEPIMRRNVDNQSYYVLGHKTPNIRDLYTLSRKLGQGQFGTTYLCTDIATGVDYACKSISKRKLISKEDVEDVRREIQIMHHLAGHKNIVTIKGAYEDPLYVHIVMELCAGGELFDRIIHRGHYSERKAAELTKIIVGVVEACHSLGVMHRDLKPENFLLVNKDDDFSLKAIDFGLSVFFKPGQIFKDVVGSPYYVAPEVLLKHYGPEADVWTAGVILYILLSGVPPFWAETQQGIFDAVLKGYIDFDTDPWPVISDSAKDLIRKMLCSSPSERLTAHEVLRHPWICENGVAPDRALDPAVLSRLKQFSAMNKLKKMALKVIAESLSEEEIAGLRAMFEAMDTDNSGAITFDELKAGLRRYGSTLKDTEIRDLMEAADVDNSGTIDYSEFIAATIHLNKLEREEHLVSAFQYFDKDGSGYITIDELQQSCIEHGMTDVFLEDIIKEVDQDNDGRIDYEEFVAMMQKGNAGVGRRTMKNSLNISMRDV
